One molecule from PMC1890005 (The Journal of biological chemistry, 2006) can be followed below.

For orientation: Kd means the equilibrium constant for the complex coming apart.

The target of the test is T1, σ^C4 domain of M. tuberculosis σ^C (M. tuberculosis).
T1 chain: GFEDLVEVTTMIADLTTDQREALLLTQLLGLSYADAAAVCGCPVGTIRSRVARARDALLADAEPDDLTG
Description: SPR. On the technique in general: Surface plasmon resonance follows binding to a sensor surface in real time, without labels.

B1: σ^C2 domain of M. tuberculosis σ^C (domain or fragment)
chain: MTATASDDEAVTALALSAAKGNGRALEAFIKATQQDVWRFVAYLSDVGSADDLTQETFLRAIGAIPRFSARSSARTWLLAIARHVVADHIRHVRSRPRTTRGARPEHLIDGD
With B1, binding was put at a Kd of 1810 ± 30 nM.
